B1: DGL208 (bispecific antibody)
chain 1: QVQLVESGGGLVQAGGSLRLSCAASGRTFSKHAMGWFRQAPGKEREFVAAIDWSGGSTYYADSVKGRFTISRDNAKNTVYLQMDSLKPEDTAVYYCAADSYTDYAQLWLPELESEYDYWGQGTLVTVSSPLAPDKTHTCPPCPAPEAAGAPSVFLFPPKPKDTLMISRTPEVTCVVVDVSHEDPEVKFNWYVDGVEVHNAKTKPREEQYNSTYRVVSVLTVLHQDWLNGKEYKCKVSNKALPAPIEKTISKAKGQPREPQVCTLPPSRDELTKNQVSLSCAVKGFYPSDIAVEWESNGQPENNYKTTPPVLDSDGSFFLVSKLTVDKSRWQQGNVFSCSVMHEALHNHYTQKSLSLSPGWSHPQFEK
chain 2: not shown
B2: DGL213 (bispecific antibody)
chain 1: QVQLVESGGGLVQAGGSLRLSCAASGRTFSKHAMGWFRQAPGKEREFVAAIDWSGGSTYYADSVKGRFTISRDNAKNTVYLQMDSLKPEDTAVYYCAADSYTDYAQLWLPELESEYDYWGQGTLVTVSSDKTHTCPPCPAPEAAGAPSVFLFPPKPKDTLMISRTPEVTCVVVDVSHEDPEVKFNWYVDGVEVHNAKTKPREEQYNSTYRVVSVLTVLHQDWLNGKEYKCKVSNKALPAPIEKTISKAKGQPREPQVCTLPPSRDELTKNQVSLSCAVKGFYPSDIAVEWESNGQPENNYKTTPPVLDSDGSFFLVSKLTVDKSRWQQGNVFSCSVMHEALHNHYTQKSLSLSPGWSHPQFEK
chain 2: QLQLVESGGGLVQAGGSLRLSCAASRSITFSHNVMGWYRQAPGKQRELVASIGSGGSTNYVDSVKGRATISRDNAKKTVYLQMNSLKPEDTAVYYCGVVVGVYRGSLGQGTLVTVSSCPPCPAPEAAGAPSVFLFPPKPKDTLMISRTPEVTCVVVDVSHEDPEVKFNWYVDGVEVHNAKTKPREEQYNSTYRVVSVLTVLHQDWLNGKEYKCKVSNKALPAPIEKTISKAKGQPREPQVYTLPPCRDELTKNQVSLWCLVKGFYPSDIAVEWESNGQPENNYKTTPPVLDSDGSFFLYSKLTVDKSRWQQGNVFSCSVMHEALHNHYTQKSLSLSPGEPEA
B3: DGL212 (bispecific antibody)
chain 1: QVQLVESGGGLVQAGGSLRLSCAASGRTFSKHAMGWFRQAPGKEREFVAAIDWSGGSTYYADSVKGRFTISRDNAKNTVYLQMDSLKPEDTAVYYCAADSYTDYAQLWLPELESEYDYWGQGTLVTVSSDKTHTCPPCPAPEAAGAPSVFLFPPKPKDTLMISRTPEVTCVVVDVSHEDPEVKFNWYVDGVEVHNAKTKPREEQYNSTYRVVSVLTVLHQDWLNGKEYKCKVSNKALPAPIEKTISKAKGQPREPQVCTLPPSRDELTKNQVSLSCAVKGFYPSDIAVEWESNGQPENNYKTTPPVLDSDGSFFLVSKLTVDKSRWQQGNVFSCSVMHEALHNHYTQKSLSLSPGWSHPQFEK
chain 2: not shown
B4: DGL216 (bispecific antibody)
chain 1: QVQLVESGGGLVQAGGSLRLSCAASGRTFSKHAMGWFRQAPGKEREFVAAIDWSGGSTYYADSVKGRFTISRDNAKNTVYLQMDSLKPEDTAVYYCAADSYTDYAQLWLPELESEYDYWGQGTLVTVSSDKTHTCPPCPAPEAAGAPSVFLFPPKPKDTLMISRTPEVTCVVVDVSHEDPEVKFNWYVDGVEVHNAKTKPREEQYNSTYRVVSVLTVLHQDWLNGKEYKCKVSNKALPAPIEKTISKAKGQPREPQVCTLPPSRDELTKNQVSLSCAVKGFYPSDIAVEWESNGQPENNYKTTPPVLDSDGSFFLVSKLTVDKSRWQQGNVFSCSVMHEALHNHYTQKSLSLSPGWSHPQFEK
chain 2: QLQLVESGGGLVQAGGSLRLSCAASRSITFSHNVMGWYRQAPGKQRELVASIGSGGSTNYVDSVKGRATISRDNAKKTVYLQMNSLKPEDTAVYYCGVVVGVYRGSLGQGTLVTVSSGGGGSGGGGSGGGGSGGGGSCPPCPAPEAAGAPSVFLFPPKPKDTLMISRTPEVTCVVVDVSHEDPEVKFNWYVDGVEVHNAKTKPREEQYNSTYRVVSVLTVLHQDWLNGKEYKCKVSNKALPAPIEKTISKAKGQPREPQVYTLPPCRDELTKNQVSLWCLVKGFYPSDIAVEWESNGQPENNYKTTPPVLDSDGSFFLYSKLTVDKSRWQQGNVFSCSVMHEALHNHYTQKSLSLSPGEPEA
B5: DGL214 (bispecific antibody)
chain 1: QVQLVESGGGLVQAGGSLRLSCAASGRTFSKHAMGWFRQAPGKEREFVAAIDWSGGSTYYADSVKGRFTISRDNAKNTVYLQMDSLKPEDTAVYYCAADSYTDYAQLWLPELESEYDYWGQGTLVTVSSDKTHTCPPCPAPEAAGAPSVFLFPPKPKDTLMISRTPEVTCVVVDVSHEDPEVKFNWYVDGVEVHNAKTKPREEQYNSTYRVVSVLTVLHQDWLNGKEYKCKVSNKALPAPIEKTISKAKGQPREPQVCTLPPSRDELTKNQVSLSCAVKGFYPSDIAVEWESNGQPENNYKTTPPVLDSDGSFFLVSKLTVDKSRWQQGNVFSCSVMHEALHNHYTQKSLSLSPGWSHPQFEK
chain 2: not shown
B6: DGL215 (bispecific antibody)
chain 1: QVQLVESGGGLVQAGGSLRLSCAASGRTFSKHAMGWFRQAPGKEREFVAAIDWSGGSTYYADSVKGRFTISRDNAKNTVYLQMDSLKPEDTAVYYCAADSYTDYAQLWLPELESEYDYWGQGTLVTVSSDKTHTCPPCPAPEAAGAPSVFLFPPKPKDTLMISRTPEVTCVVVDVSHEDPEVKFNWYVDGVEVHNAKTKPREEQYNSTYRVVSVLTVLHQDWLNGKEYKCKVSNKALPAPIEKTISKAKGQPREPQVCTLPPSRDELTKNQVSLSCAVKGFYPSDIAVEWESNGQPENNYKTTPPVLDSDGSFFLVSKLTVDKSRWQQGNVFSCSVMHEALHNHYTQKSLSLSPGWSHPQFEK
chain 2: QLQLVESGGGLVQAGGSLRLSCAASRSITFSHNVMGWYRQAPGKQRELVASIGSGGSTNYVDSVKGRATISRDNAKKTVYLQMNSLKPEDTAVYYCGVVVGVYRGSLGQGTLVTVSSPLAPCPPCPAPEAAGAPSVFLFPPKPKDTLMISRTPEVTCVVVDVSHEDPEVKFNWYVDGVEVHNAKTKPREEQYNSTYRVVSVLTVLHQDWLNGKEYKCKVSNKALPAPIEKTISKAKGQPREPQVYTLPPCRDELTKNQVSLWCLVKGFYPSDIAVEWESNGQPENNYKTTPPVLDSDGSFFLYSKLTVDKSRWQQGNVFSCSVMHEALHNHYTQKSLSLSPGEPEA
B7: DGL211 (bispecific antibody)
chain 1: QVQLVESGGGLVQAGGSLRLSCAASGRTFSKHAMGWFRQAPGKEREFVAAIDWSGGSTYYADSVKGRFTISRDNAKNTVYLQMDSLKPEDTAVYYCAADSYTDYAQLWLPELESEYDYWGQGTLVTVSSEKSYGPPCPPCPAPEAAGAPSVFLFPPKPKDTLMISRTPEVTCVVVDVSHEDPEVKFNWYVDGVEVHNAKTKPREEQYNSTYRVVSVLTVLHQDWLNGKEYKCKVSNKALPAPIEKTISKAKGQPREPQVCTLPPSRDELTKNQVSLSCAVKGFYPSDIAVEWESNGQPENNYKTTPPVLDSDGSFFLVSKLTVDKSRWQQGNVFSCSVMHEALHNHYTQKSLSLSPGWSHPQFEK
chain 2: QLQLVESGGGLVQAGGSLRLSCAASRSITFSHNVMGWYRQAPGKQRELVASIGSGGSTNYVDSVKGRATISRDNAKKTVYLQMNSLKPEDTAVYYCGVVVGVYRGSLGQGTLVTVSSEKSYGPPCPPCPAPEAAGAPSVFLFPPKPKDTLMISRTPEVTCVVVDVSHEDPEVKFNWYVDGVEVHNAKTKPREEQYNSTYRVVSVLTVLHQDWLNGKEYKCKVSNKALPAPIEKTISKAKGQPREPQVYTLPPCRDELTKNQVSLWCLVKGFYPSDIAVEWESNGQPENNYKTTPPVLDSDGSFFLYSKLTVDKSRWQQGNVFSCSVMHEALHNHYTQKSLSLSPGEPEA
B8: DGL210 (bispecific antibody)
chain 1: QVQLVESGGGLVQAGGSLRLSCAASGRTFSKHAMGWFRQAPGKEREFVAAIDWSGGSTYYADSVKGRFTISRDNAKNTVYLQMDSLKPEDTAVYYCAADSYTDYAQLWLPELESEYDYWGQGTLVTVSSGGGGSGGGGSGGGGSGGGGSCPPCPAPEAAGAPSVFLFPPKPKDTLMISRTPEVTCVVVDVSHEDPEVKFNWYVDGVEVHNAKTKPREEQYNSTYRVVSVLTVLHQDWLNGKEYKCKVSNKALPAPIEKTISKAKGQPREPQVCTLPPSRDELTKNQVSLSCAVKGFYPSDIAVEWESNGQPENNYKTTPPVLDSDGSFFLVSKLTVDKSRWQQGNVFSCSVMHEALHNHYTQKSLSLSPGWSHPQFEK
chain 2: QLQLVESGGGLVQAGGSLRLSCAASRSITFSHNVMGWYRQAPGKQRELVASIGSGGSTNYVDSVKGRATISRDNAKKTVYLQMNSLKPEDTAVYYCGVVVGVYRGSLGQGTLVTVSSGGGGSGGGGSGGGGSGGGGSCPPCPAPEAAGAPSVFLFPPKPKDTLMISRTPEVTCVVVDVSHEDPEVKFNWYVDGVEVHNAKTKPREEQYNSTYRVVSVLTVLHQDWLNGKEYKCKVSNKALPAPIEKTISKAKGQPREPQVYTLPPCRDELTKNQVSLWCLVKGFYPSDIAVEWESNGQPENNYKTTPPVLDSDGSFFLYSKLTVDKSRWQQGNVFSCSVMHEALHNHYTQKSLSLSPGEPEA

Assays:
[1] = target: T1, IL-18 receptor (IL-18Rα and IL-18Rβ) on HEK-Blue IL-18 cells (UniProt Q13478 19-541; O95256 20-599, limits assumed); test: cell-based or functional assay
T1 sequence (looked up) 1: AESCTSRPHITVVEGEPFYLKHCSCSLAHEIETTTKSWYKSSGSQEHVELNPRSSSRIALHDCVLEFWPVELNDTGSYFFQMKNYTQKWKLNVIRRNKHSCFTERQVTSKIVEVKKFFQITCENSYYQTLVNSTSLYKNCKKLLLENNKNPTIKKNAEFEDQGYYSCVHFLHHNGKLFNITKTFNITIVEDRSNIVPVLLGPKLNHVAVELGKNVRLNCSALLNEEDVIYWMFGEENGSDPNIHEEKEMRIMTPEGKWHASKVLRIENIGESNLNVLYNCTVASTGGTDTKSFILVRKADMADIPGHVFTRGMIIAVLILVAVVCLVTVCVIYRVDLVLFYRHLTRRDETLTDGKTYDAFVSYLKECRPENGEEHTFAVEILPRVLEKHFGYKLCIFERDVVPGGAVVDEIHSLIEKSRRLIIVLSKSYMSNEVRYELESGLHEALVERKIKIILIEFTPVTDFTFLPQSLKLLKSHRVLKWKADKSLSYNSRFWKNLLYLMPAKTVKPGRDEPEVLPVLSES
T1 sequence (looked up) 2: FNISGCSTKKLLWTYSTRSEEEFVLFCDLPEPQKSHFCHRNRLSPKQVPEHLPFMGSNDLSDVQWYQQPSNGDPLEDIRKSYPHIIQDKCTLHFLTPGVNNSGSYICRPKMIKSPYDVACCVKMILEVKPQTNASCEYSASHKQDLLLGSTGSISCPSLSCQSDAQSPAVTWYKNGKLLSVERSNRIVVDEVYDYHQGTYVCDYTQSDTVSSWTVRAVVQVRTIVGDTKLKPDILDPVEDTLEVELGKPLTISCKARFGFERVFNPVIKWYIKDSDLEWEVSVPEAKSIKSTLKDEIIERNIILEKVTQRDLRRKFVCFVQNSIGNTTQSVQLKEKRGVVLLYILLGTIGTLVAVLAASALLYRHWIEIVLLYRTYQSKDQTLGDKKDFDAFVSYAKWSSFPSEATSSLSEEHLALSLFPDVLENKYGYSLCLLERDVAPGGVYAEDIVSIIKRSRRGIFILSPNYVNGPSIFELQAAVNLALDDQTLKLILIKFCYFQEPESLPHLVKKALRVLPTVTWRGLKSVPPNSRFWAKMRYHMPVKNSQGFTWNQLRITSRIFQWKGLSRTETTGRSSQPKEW

[2] = target: T1, IL-18 receptor (IL-18Rα and IL-18Rβ) on …; test: cell-based or functional assay; remark: listed apart in the source

| Binder | HEK-Blue assay, % human IL-18 [1] | HEK-Blue assay, % human IL18 [2] [% human IL18] |
| --- | --- | --- |
| B1 | 44 % of human IL18 activity | – |
| B2 | – | 42 |
| B3 | 41 % of human IL18 activity | – |
| B4 | – | 22 |
| B5 | – | 31 |
| B6 | – | 40 |
| B7 | 50 % of human IL18 activity | – |
| B8 | 34 % of human IL18 activity | – |

Reference: patent US20240383990A1 (DIAGONAL THERAPEUTICS, published 2024)
